Assay results published in patent US20210285024.

Experiments:
[1] = biological target: human tubulin purified from HEK293 cells
[2] = biological target: tubulin purified from Spodoptera Frugiperda Sf9 cells (fully tyrosinated; used as purified tubulin or polymerised microtubules)

B1: recombinant SVBP-VASH2 complex (protein)
chain 1: not shown
chain 2: MDPPARKEKTKVKESVSRVEKAKQKSAQQELKQRQRAEIYALNRVMTELEQQQFDEFCKQMQPPGE
In the case of B1, the “detyrosination assay (western blot, relative optical density detyrosination/tubulin)” value [1] is reported as “the fold induction of the tubulin detyrosination resulting from SVBP-VASH2 complex was significantly lower with human tubulin purified from HEK293 cells in comparison to the one obtained using Sf9 cells extracted tubulin” and the “detyrosination assay (western blot, relative optical density detyrosination/tubulin)” value [2] is reported as “SVBP-VASH2 complex strongly induced detyrosination in the assay”.
